{
  "source": "paper PMC7643134",
  "target": "Hydroxynitrile lyase from Parafontaria laminata millipedes, purified from the millipedes (PlamHNL-N) (Parafontaria laminata)",
  "test": "SEC",
  "data": [
    {"substance": "Hydroxynitrile lyase from Parafontaria laminata millipedes, purified from the millipedes (PlamHNL-N) (enzyme)", "values": [
      {"measurement": "stoichiometry N", "value": 2}
    ]}
  ]
}
